Experimental data as given in patent US20080220446A1, “Method for Detecting and/or Removing Protein and/or Peptide Comprising a Cross-Beta Structure From an Aqueous Solution Comprising a Protein” (priority 2005, published 2008).

Biological target: endostatin (EntreMed, Inc.) (UniProt P39060)
Test: SPR (Biacore), Fn F4-5-His6 immobilized, endostatin at 0-800 nM, maximum RU against concentration

endostatin (EntreMed, Inc.), sequence (P39060 1572-1754): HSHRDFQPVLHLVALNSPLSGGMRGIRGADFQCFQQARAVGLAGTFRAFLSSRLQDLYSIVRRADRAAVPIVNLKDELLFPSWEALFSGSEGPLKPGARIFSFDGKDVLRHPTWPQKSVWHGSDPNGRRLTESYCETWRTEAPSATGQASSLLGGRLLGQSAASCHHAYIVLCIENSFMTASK

In the case of “Fn F4-5-His6 (fibronectin type I domains 4-5, expressed in S. cerevisiae) (from UniProt P02751 182-276)”, the concentration of ligand that results in half maximum binding is reported as 800 nM.
